# B1: 12F1 (antibody, V domains shown)
# VH: QSLEESGGRLVTPGTPLTLTCTVSGFSLNSNAMGWVRQAPGKGLEYIGFIAAYGDTHNATWAKGRFTISKTSTTVDLKITSPTTEDTATYFCASTYGGDGGWYFNIWGPGTLVTVSE
# VL: AFELTQTPSSVEAAVGGTVIIKCQASQNIVRYLSWYQQKPGQPPKLLIYEASNLASGVPSRFSGSGSGTEFTLTISDLECADAATYYCQSYYDAESFNTFGGGTEVVVKG
# Key:
# CT103A scFv [1] = assay: competition ELISA, antibody at 500 ng/ml pre-incubated with biotin-CT103A scFv; competitor: coated BCMA
# CT103A scFv [2] = assay: competition ELISA, antibody at 1000 ng/ml pre-incubated with biotin-CT103A scFv; competitor: coated BCMA
# [3] = biological target: BCMA-CAR (CAR with the CT103A scFv) on cells; assay: flow cytometry, AF647-labelled antibody on BCMA-CAR-Jurkat cells; first series, 2-fold dilution step 2 of 10; design: scale not given here
# Chain of BCMA-CAR (CAR with the CT103A scFv) on cells (chain, as listed by the source): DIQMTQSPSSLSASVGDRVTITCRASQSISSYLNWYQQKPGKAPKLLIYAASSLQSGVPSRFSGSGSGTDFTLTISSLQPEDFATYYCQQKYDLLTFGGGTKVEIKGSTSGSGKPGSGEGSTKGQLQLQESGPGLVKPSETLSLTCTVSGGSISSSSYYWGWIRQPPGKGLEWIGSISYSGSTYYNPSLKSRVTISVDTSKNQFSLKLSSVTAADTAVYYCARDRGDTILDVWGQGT
# [4] = biological target: BCMA-CAR (CAR with the CT103A scFv) on cells; assay: flow cytometry, AF647-labelled antibody on BCMA-CAR-Jurkat cells; first series, 2-fold dilution step 3 of 10; design: scale not given here
# [5] = biological target: BCMA-CAR (CAR with the CT103A scFv) on cells; assay: flow cytometry, AF647-labelled antibody on BCMA-CAR-Jurkat cells; first series, 2-fold dilution step 4 of 10; design: scale not given here
# [6] = biological target: BCMA-CAR (CAR with the CT103A scFv) on cells; assay: flow cytometry, AF647-labelled antibody on BCMA-CAR-Jurkat cells; first series, 2-fold dilution step 5 of 10; design: scale not given here
# [7] = biological target: BCMA-CAR (CAR with the CT103A scFv) on cells; assay: flow cytometry, AF647-labelled antibody on BCMA-CAR-Jurkat cells; first series, 2-fold dilution step 6 of 10; design: scale not given here
# [8] = biological target: BCMA-CAR (CAR with the CT103A scFv) on cells; assay: flow cytometry, AF647-labelled antibody on BCMA-CAR-Jurkat cells; first series, 2-fold dilution step 7 of 10; design: scale not given here
# [9] = biological target: BCMA-CAR (CAR with the CT103A scFv) on cells; assay: flow cytometry, AF647-labelled antibody on BCMA-CAR-Jurkat cells; first series, 2-fold dilution step 8 of 10; design: scale not given here
# [10] = biological target: BCMA-CAR (CAR with the CT103A scFv) on cells; assay: flow cytometry, AF647-labelled antibody on BCMA-CAR-Jurkat cells; first series, 2-fold dilution step 9 of 10; design: scale not given here
# [11] = biological target: BCMA-CAR (CAR with the CT103A scFv) on cells; assay: flow cytometry, AF647-labelled antibody on BCMA-CAR-Jurkat cells; first series, 2-fold dilution step 10 of 10 (lowest); design: scale not given here
# [12] = biological target: BCMA-CAR (CAR with the CT103A scFv) on cells; assay: flow cytometry, AF647-labelled antibody on BCMA-CAR-Jurkat cells; SECOND series, also printed as 12F1 (possibly 6G8), step 2 of 10; design: scale not given here
# [13] = biological target: BCMA-CAR (CAR with the CT103A scFv) on cells; assay: flow cytometry, AF647-labelled antibody on BCMA-CAR-Jurkat cells; SECOND series, also printed as 12F1 (possibly 6G8), step 3 of 10; design: scale not given here
# [14] = biological target: BCMA-CAR (CAR with the CT103A scFv) on cells; assay: flow cytometry, AF647-labelled antibody on BCMA-CAR-Jurkat cells; SECOND series, also printed as 12F1 (possibly 6G8), step 4 of 10; design: scale not given here
# [15] = biological target: BCMA-CAR (CAR with the CT103A scFv) on cells; assay: flow cytometry, AF647-labelled antibody on BCMA-CAR-Jurkat cells; SECOND series, also printed as 12F1 (possibly 6G8), step 5 of 10; design: scale not given here
# [16] = biological target: BCMA-CAR (CAR with the CT103A scFv) on cells; assay: flow cytometry, AF647-labelled antibody on BCMA-CAR-Jurkat cells; SECOND series, also printed as 12F1 (possibly 6G8), step 6 of 10; design: scale not given here
# [17] = biological target: BCMA-CAR (CAR with the CT103A scFv) on cells; assay: flow cytometry, AF647-labelled antibody on BCMA-CAR-Jurkat cells; SECOND series, also printed as 12F1 (possibly 6G8), step 7 of 10; design: scale not given here
# [18] = biological target: BCMA-CAR (CAR with the CT103A scFv) on cells; assay: flow cytometry, AF647-labelled antibody on BCMA-CAR-Jurkat cells; SECOND series, also printed as 12F1 (possibly 6G8), step 8 of 10; design: scale not given here
# [19] = biological target: BCMA-CAR (CAR with the CT103A scFv) on cells; assay: flow cytometry, AF647-labelled antibody on BCMA-CAR-Jurkat cells; SECOND series, also printed as 12F1 (possibly 6G8), step 9 of 10; design: scale not given here
# [20] = biological target: BCMA-CAR (CAR with the CT103A scFv) on cells; assay: flow cytometry, AF647-labelled antibody on BCMA-CAR-Jurkat cells; first series, 2-fold dilution step 1 of 10 (highest); negative control MFI 0.18; design: scale not given here
# [21] = biological target: BCMA-CAR (CAR with the CT103A scFv) on cells; assay: flow cytometry, AF647-labelled antibody on BCMA-CAR-Jurkat cells; SECOND series, also printed as 12F1 (possibly 6G8), step 10 of 10 (lowest); design: scale not given here
# [22] = biological target: BCMA-CAR (CAR with the CT103A scFv) on cells; assay: flow cytometry, AF647-labelled antibody on BCMA-CAR-Jurkat cells; SECOND series, also printed as 12F1 (possibly 6G8), 2-fold dilution step 1 of 10 (highest); design: scale not given here
# Chain of CT103A scFv (scFv, as listed by the source): as the sequence (chain, as listed by the source) above
binder,measurement,setting,value
B1,信号抑制率,CT103A scFv [1],> 90%
same,信号抑制率,CT103A scFv [2],> 90%
same,MFI,[3],15.3
same,MFI,[4],15.3
same,MFI,[5],14.3
same,MFI,[6],12.4
same,MFI,[7],7.73
same,MFI,[8],4.37
same,MFI,[9],2.83
same,MFI,[10],1.53
same,MFI,[11],0.94
same,MFI,[12],3.16
same,MFI,[13],1.98
same,MFI,[14],1.28
same,MFI,[15],0.81
same,MFI,[16],0.53
same,MFI,[17],0.37
same,MFI,[18],0.31
same,MFI,[19],0.25
same,MFI,[20],15.3
same,MFI,[21],0.22
same,MFI,[22],4.66

# — CN114874330A
